Data as given in patent US20220298217A1 (FLAGSHIP PIONEERING INNOVATIONS VI, published 2022).
Substitutions are numbered along the chain they refer to. Values joined by “and” are separate entries in the source; they are usually repeats but may differ in a detail not shown here. Identical values can stand only once. Each block holds one binder with its values, some of them ahead of it.

Biological target: T1, Flag-PTHR1-YFP (parathyroid hormone receptor 1) expressed in transfected HEK293T cells (human, UniProt Q03431 27-593)
T1 sequence (looked up): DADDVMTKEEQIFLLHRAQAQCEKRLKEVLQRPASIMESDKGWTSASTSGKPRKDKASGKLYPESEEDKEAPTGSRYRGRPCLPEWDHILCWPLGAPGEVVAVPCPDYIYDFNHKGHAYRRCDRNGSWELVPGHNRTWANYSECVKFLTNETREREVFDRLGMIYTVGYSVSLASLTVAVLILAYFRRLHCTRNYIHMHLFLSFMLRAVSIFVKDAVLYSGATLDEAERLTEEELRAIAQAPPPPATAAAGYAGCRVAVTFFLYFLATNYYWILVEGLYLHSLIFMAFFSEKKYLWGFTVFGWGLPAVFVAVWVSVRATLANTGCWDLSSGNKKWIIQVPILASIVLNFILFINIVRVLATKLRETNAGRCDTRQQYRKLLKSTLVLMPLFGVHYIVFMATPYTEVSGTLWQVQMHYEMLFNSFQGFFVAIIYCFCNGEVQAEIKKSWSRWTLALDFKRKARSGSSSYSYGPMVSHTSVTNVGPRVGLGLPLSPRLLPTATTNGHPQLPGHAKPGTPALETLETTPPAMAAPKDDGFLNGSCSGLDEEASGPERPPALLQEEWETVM
Experiment: cell-based or functional assay

B1: R2-30 (peptide)
peptide: AVAEIQLMHQRAKWLEELKLKDDLRKILEDVY
arrestin 1, plate 17: -log10EC50: -7.88 -log10EC50 and -8.28 -log10EC50 | arrestin 2, plate 18: -log10EC50: -7.92 -log10EC50 and -8.3 -log10EC50

B3: R2-31 (peptide)
peptide: AVAEIQLMHQRAKWGLDLELRARLREILRDVY
arrestin 1, plate 17: -log10EC50: -8 -log10EC50 and -8.53 -log10EC50 | arrestin 2, plate 18: -log10EC50: -8.12 -log10EC50 and -8.18 -log10EC50

B4: R2-37 (peptide)
peptide: AVAEIQLMHQRAKWEIQEIGIKITLELLKEYI
arrestin 1, plate 9: -log10EC50: -5.08 -log10EC50 | arrestin 1, plate 9: Emax: 19.4 | arrestin 1, plate 19: -log10EC50: -3.6 -log10EC50 and -6.48 -log10EC50 | arrestin 2, plate 20: -log10EC50: -6.3 -log10EC50 and -6.41 -log10EC50

B9: R2-27 (peptide)
peptide: AVAEIQLMHQRAKWKLDLELAVSLRKILEDVY
arrestin 1, plate 17: -log10EC50: -7.92 -log10EC50 and -8.02 -log10EC50 | arrestin 2, plate 18: -log10EC50: -7.65 -log10EC50 and -8.08 -log10EC50

B12: R2-40 (peptide)
peptide: AVAEIQLMHQRAKWDLLIELVKLLHELLKEYI
arrestin 1, plate 11: -log10EC50: -6.24 -log10EC50 | arrestin 1, plate 11: Emax: 14.7 | arrestin 1, plate 21: -log10EC50: -5.44 -log10EC50 | arrestin 1, plate 21: Emax: 11.4 | arrestin 2, plate 22: -log10EC50: -6.07 -log10EC50 | arrestin 2, plate 22: Emax: 20.9

B14: R2-39 (peptide)
peptide: AVAEIQLMHQRAKWELQEIGIKITLDLLEAYL
arrestin 1, plate 11: -log10EC50: 2.64 -log10EC50 | arrestin 1, plate 11: Emax: 15.4 | arrestin 1, plate 21: -log10EC50: -6.11 -log10EC50 and -6.23 -log10EC50 | arrestin 2, plate 22: -log10EC50: -6.95 -log10EC50 and -6.4 -log10EC50

B15: R2-8 (peptide)
peptide: SVMMIQVMHDLAKIRAEYELREMLLRLLEEIF
arrestin 1, plate 9: -log10EC50: -8.43 -log10EC50 | arrestin 1, plate 9: Emax: 6.29 | arrestin 2, plate 10: -log10EC50: -9.46 -log10EC50

B16: R2-2 (peptide)
peptide: B15 peptide with S1G, M3A, V7I, L11I
arrestin 1, plate 7: -log10EC50: -14 -log10EC50 and -12.2 -log10EC50 | arrestin 2, plate 8: -log10EC50: 5.1 -log10EC50 and -14.8 -log10EC50

B17: R2-36 (peptide)
peptide: AVAEIQLMHQRAKWKLELELKAFLDQILKDVL
arrestin 1, plate 9: -log10EC50: -8.83 -log10EC50 | arrestin 1, plate 9: Emax: 7.4 | arrestin 1, plate 19: -log10EC50: -8.33 -log10EC50 and -8.54 -log10EC50 | arrestin 2, plate 20: -log10EC50: -8.27 -log10EC50 and -8.6 -log10EC50

The next lines start with the values.

arrestin 1, plate 5: -log10EC50: -5.38 -log10EC50 and -8.1 -log10EC50 and -6.02 -log10EC50 | arrestin 1, plate 25: -log10EC50: -11.5 -log10EC50 | arrestin 1, plate 25: Emax: 10.3 | arrestin 2, plate 6: -log10EC50: -6.2 -log10EC50 and -5.16 -log10EC50 and -6.19 -log10EC50 | arrestin 2, plate 26: -log10EC50: -6.36 -log10EC50 | arrestin 2, plate 26: Emax: 21.5
B2: I3 (R1-97) (peptide)
peptide: AVAEIQLMHQRAKWELEFELFREFLKLLVDFF

arrestin 1, plate 11: -log10EC50: -7.98 -log10EC50 | arrestin 1, plate 11: Emax: 7.87 | arrestin 1, plate 21: -log10EC50: -4.99 -log10EC50 and -7.96 -log10EC50 | arrestin 2, plate 22: -log10EC50: -7.63 -log10EC50 and -8.09 -log10EC50
B5: R2-42 (peptide)
peptide: AVAEIQLMHQRAKWAIQEIGIKITRELLERYL

arrestin 1, plate 13: -log10EC50: -6.25 -log10EC50 | arrestin 1, plate 13: Emax: 17.3 | arrestin 1, plate 23: -log10EC50: -6.35 -log10EC50 and -6.4 -log10EC50 | arrestin 2, plate 24: -log10EC50: -6.26 -log10EC50 and -6.27 -log10EC50
B6: R2-46 (peptide)
peptide: AVAEIQLMHQRAKWSILEELLKILTALLDEYI

arrestin 1, plate 13: -log10EC50: -5.84 -log10EC50 | arrestin 1, plate 13: Emax: 15.7 | arrestin 1, plate 23: -log10EC50: -6.19 -log10EC50 and -5.44 -log10EC50 | arrestin 2, plate 24: -log10EC50: -5.46 -log10EC50 and -5.86 -log10EC50
B7: R2-47 (peptide)
peptide: AVAEIQLMHQRAKWDVLIELAKLLAELLRRYH

arrestin 1, plate 13: -log10EC50: -5.72 -log10EC50 | arrestin 1, plate 13: Emax: 15.1 | arrestin 1, plate 23: -log10EC50: -15.4 -log10EC50 | arrestin 1, plate 23: Emax: 6.53 | arrestin 2, plate 24: -log10EC50: -10.7 -log10EC50 | arrestin 2, plate 24: Emax: 6.67
B8: R2-48 (peptide)
peptide: AVAEIQLMHQRAKWKILEELLKILIDLLKQYI

arrestin 1, plate 13: -log10EC50: -8.54 -log10EC50 | arrestin 1, plate 13: Emax: 7.41 | arrestin 1, plate 23: -log10EC50: -7.82 -log10EC50 and -8.55 -log10EC50 | arrestin 2, plate 24: -log10EC50: -7.99 -log10EC50 and -5.45 -log10EC50
B10: R2-44 (peptide)
peptide: AVAEIQLMHQRAKWSLREELEKLLKELLKEYI

arrestin 1, plate 13: -log10EC50: -8.31 -log10EC50 | arrestin 1, plate 13: Emax: 7.23 | arrestin 1, plate 23: -log10EC50: -6.3 -log10EC50 and -8.03 -log10EC50 | arrestin 2, plate 24: -log10EC50: -6.24 -log10EC50 and -7.91 -log10EC50
B11: R2-43 (peptide)
peptide: AVAEIQLMHQRAKWELQEIGIAITLRLLARYI

arrestin 1, plate 15: -log10EC50: -5.92 -log10EC50 | arrestin 1, plate 15: Emax: 32.9 | arrestin 1, plate 25: -log10EC50: -13.8 -log10EC50 | arrestin 1, plate 25: Emax: 6.47 | arrestin 2, plate 26: -log10EC50: -13.9 -log10EC50 | arrestin 2, plate 26: Emax: 6.62
B13: R2-50 (peptide)
peptide: GVAMLQIMHDLAKIKQELELKDSMKKILEDVL
